These are literature values, as cited in article PMC2880639.

This data set deals with His62 (UniProt position 62, VESEAHPGSVQ). Description: kinetics. The following applies: dissociated species undergoing association.

One may read the pKa as the negative logarithm of the acid dissociation constant. On to “R67 dihydrofolate reductase (type II DHFR) (Escherichia coli (plasmid R67))”, for which the pKa was 6.6.
